Laboratory results reported in patent publication US12668821B2, “Enzymatic production of glucaric acid from glucuronic acid” (THE GOVERNING COUNCIL OF THE UNIVERSITY OF TORONTO, priority 2019, dated 2026).

Assays:
[1] = Release of MeGlcA from glucuronoxylan by AxyAgu115A (HPAEC-PAD); assay type: biochemical, beechwood; conditions: from 1.5 g glucuronoxylan, calculated on the MeGlcA standard curve
Procedure: Glucuronoxylan (6%) was incubated with AxyAgu115A (10 μg/mL) and GOOX-Y300A (10 μg/mL) in 100 mM Tris buffer pH 8.0 at 40° C. in a rotator oven for up to 72 h. The reactions were then vacuum-filtered using 96-well filter plates (0.22-μm PVDF membrane) (Millipore, USA) in a Tecan liquid handler (500 mbar) (Tecan Trading AG, Switzerland). Enzymatic products in the flow-through were confirmed by mass spectrometry and quantified by HPAEC-PAD analysis.
Reaction samples were vacuum-filtered using 0.22-μm, PVDF filter plates (Millipore, USA) with a Tecan liquid handler (500 mbar) (Tecan Trading AG, Switzerland). […] The presence of acidic sugars was detected using an ICS5000 HPAEC-PAD system (Dionex, USA) with a CarboPac PA1 (2×250 mm) analytical column (Dionex, USA). […] Chromatograms were analyzed using Chromeleon 7.2 (Dionex, USA).
AxyAgu115A was produced with high purity (FIG. 2). The treatment of glucuronoxylan with AxyAgu115A released only MeGlcA, as analyzed by HPAEC-PAD (FIG. 3), and no additional release of MeGlcA was seen after 16 h. […]
The concentration of MeGlcA released from 1.5 g glucuronoxylan was 21.6±1.2 mM, calculated by on the MeGlcA standard curve (FIG. 5) whereas the estimated molar concentration of MeGlcA, based on a previous analysis of glucuronoxylan composition (Teleman et al., 2002), was 24.4 mM. […]

[2] = H2O2 inhibition assay of AxyAgu115A on glucuronoxylan; assay type: biochemical, beechwood
Procedure: FIG. 10: HPAEC-PAD analyses of H2O2 effects on AxyAgu115A activity and MeGlcA degradation.
AxyAgu115A (10 μg/mL) was incubated with 1% glucuronoxylan in 50 mM Tris buffer pH 8.0 in the presence of various H2O2 concentrations (0.01-100 mM). MeGlcA (1 mM) was also incubated with the same H2O2 concentrations. The reactions were kept in the dark at 40° C. for 16 h in a thermomixer (Eppendorf, USA). Catalase (200 μg/mL) was then added, and the reactions were kept incubating for another 30 min to remove H2O2 before HPAEC-PAD analysis.
The MeGlcA concentration released by AxyAgu115A from 6% glucuronoxylan after 16 h was around the Km of GOOX-Y300A on this acidic sugar, supporting the usage of GOOX-Y300A and AxyAgu115 in a one-pot reaction. […] Thus, a one-pot sequential reaction was performed where GOOX-Y300A was added to the reaction after pre-hydrolysis of glucuronoxylan by AxyAgu115A for 4 h. Following 16 h of incubation with GOOX-Y300A, methyl glucaric acid yields were similar to those achieved using the two-pot sequential system described above (i.e., 60% yield as confirmed by LC-MS).

B1: AxyAgu115A: GH115 α-glucuronidase from Amphibacillus xylanus, SEQ ID NO: 4 (protein, listed as Amphibacillus xylanus)
chain: MDFTLNQEMLMTDTKSGALFYQEEEALSGVRKIANKVMHDVELVFGYQPEATKDRDMLSRHAVLYGTVGHSPLLDELNKKELIDLTEIAGKREVFLFQVVDQPIQGVEKALVIAGSDKRGTIYGLFHLSEKLGVSPLVDWSGVLPARKESFSLKGDYKYVSKEPSVKYRGFFINDEWPAFGNWSAKNFGGFNAEMYDHVFELLLRLKGNYLWPAMWSARFNDDGPGLANVELADEYGVIMGASHHEPCLRYGEEYKYLRGPDSIYGDAWNFITNREGITKFWEDGLKRTGHFENIITIGMRGEADTKIMGEDATLEDNINLLRDVIQTQNKLIKEHVNPNLKEVPRMLALYKEVEPFFYGDENTPGLINSEELEDVILMLCDDNHGNLRTLPTEDMRKHSGGYGMYYHFDYHGGPVSYEWINSSYLPKIWEQMTMAYDFGVRDLWIVNVGDIATQELPLSFFLDLAYDFDKWGTNAINKTDDYTKQWIEQQFAGVFNLEQKDKVFELLNGYTKIAHNRRPEAMNVDVYHPVNYHETDQLLDRIDHLLGLAEELYQEVDQQHFTAYFALVYYPTVGNLNLQKMWLLNGKNKYAAQLNLIEANKLAEQVKACLKRDQEIVDEYHTIADGKFYGMGLSEHIGFVHWNEDENKNPVLSYVLPVNKPRLLVSIDGTELRSEGSPWHVNTLPLVDFLEPDVNQASFTISSVSEKKAEYHISTDQDWLSCSAANGVLDGKNKLSETIHVFVDRDGLADQAEGRITVKTPVGKVTIVVPVVNNDFTNYPDMTFVDTKGYISIEAEHFATQKATENLDGTLNRFEVLDGYGKTLSAIKAFPTDTHYQVGKDAPFVEYHFVTQEAGVYELEFYLQPSNPVTREGTMYAGIQVNENDVDVINVLPDGYHVDGPHWGIDVINNIRTTKTKITCEQGLNKLRIYAVSPGFALEKIVIYPDGKKLANSYLGPNETYYVGR
- concentration of MeGlcA released from glucuronoxylan [1]: 21.6 ± 1.2 mM
- activity lost in the presence of H2O2 ([2]; 10 mM H2O2): approximately half of AxyAgu115A activity was lost
- H2O2 concentration at which activity was inhibited ([2]; 1% glucuronoxylan, 50 mM Tris pH 8.0, 40° C., 16 h): greater than 1 mM
- effect of higher H2O2 concentrations on MeGlcA released from glucuronoxylan ([2]; peak area, HPAEC-PAD, FIG. 10A): lowered the amount of MeGlcA released
